Read-outs that look alike come from different tables or passages of the source.
T1: TCRab on primary human T cells (human, UniProt P01848 1-140; P01850 1-176)
T1 construct: whole, on cells; T cells isolated from buffy coats; also called Primary hu T cells; human TCR
T1 TCR alpha (looked up): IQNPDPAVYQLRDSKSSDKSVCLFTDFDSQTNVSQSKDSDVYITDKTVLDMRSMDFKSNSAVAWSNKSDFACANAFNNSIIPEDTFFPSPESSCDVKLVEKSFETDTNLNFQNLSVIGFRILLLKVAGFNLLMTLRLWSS
T1 TCR beta (looked up): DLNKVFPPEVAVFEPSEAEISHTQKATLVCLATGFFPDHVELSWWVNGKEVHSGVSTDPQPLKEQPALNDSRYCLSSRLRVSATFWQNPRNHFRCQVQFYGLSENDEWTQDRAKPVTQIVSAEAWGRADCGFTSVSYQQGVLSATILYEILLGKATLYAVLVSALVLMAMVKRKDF

T2: cyno TCRab, in house produced (extracellular domains fused to a zipper peptide) (cynomolgus)
T2 construct: Numbering of the four differences is not explained; not shown: variable domains, if any; any residues beyond C131 of the beta chain
T2 alpha: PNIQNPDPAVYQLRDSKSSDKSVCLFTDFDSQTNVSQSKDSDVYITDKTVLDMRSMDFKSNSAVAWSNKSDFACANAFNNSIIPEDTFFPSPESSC
T2 beta: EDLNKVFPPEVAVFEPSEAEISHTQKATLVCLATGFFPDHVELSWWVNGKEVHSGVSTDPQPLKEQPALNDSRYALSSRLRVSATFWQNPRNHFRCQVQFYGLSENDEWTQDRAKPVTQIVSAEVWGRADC

B1: A022600373 (bispecific antibody)
chain: DVQLVESGGGVVQPGGSLRLSCVASGYVHKINFYGWYRQAPGKEREKVAHISIGDQTDYADSAKGRFTISRDESKNTVYLQMNSLRPEDTAAYYCRALSRIWPYDYWGQGTLVTVSSGGGGSGGGGSGGGGSGGGGSEVQLVESGGGVVQPGGSLRLSCAASGFTFRSFGMSWVRQAPGKGPEWVSSISGSGSDTLYADSVKGRFTISRDNSKNTLYLQMNSLRPEDTALYYCTIGGSLSRSSQGTLVTVSSGGC
modifications: pHAb dye on the C-terminal GGC (degree of labeling 1)
notes: also called TCE01-20GS-ALB23002-GGC
B2: A0226015A08 (VHH)
VHH: EVQLVESGGGLVQAGGSLRLSCVASGSIFRSVFSSSTMEWYRQPPGKKRELVARIAPGDGTNYGALYADSVKGRFTISRDDAKKTVDLQMNSLKPEDTGVYFCASGVAWGQGTLVTVSS
notes: Parental ISVD; also called A02260015A08; anti-GPC3 ISVD
B3: A022600314 (VHH)
VHH: EVQLVESGGGVVQPGGSLRLSCAASGSIFRSVFSSSTMEWYRQAPGKKRELVARIAPGEGTYYGALYADSVKGRFTISRDNAKNTVYLQMNSLRPEDTALYYCASGVAWGQGTLVTVSS
notes: also called A0226000314
B4: A0226018C08 (VHH)
VHH: EVQLVESGGGLVQPGGSLRLSCVASGFTFSSFAMTWVRRPPGKGLEWVATITNGGVTSYRDSVKGRFTISRDNAKNTLYLEMTSLNPEDTAVYICANARRTGPRAPTDIGSYRGQGTLVTVSS
notes: Parental ISVD; also called A02260018C08; anti-GPC3 ISVD
B5: T017000698 (bispecific antibody)
chain: DVQLVESGGGVVQPGGSLRLSCVASGYVHKINFYGWYRQAPGKEREKVAHISIGDQTDYADSAKGRFTISRDESKNTVYLQMNSLRPEDTAAYYCRALSRIWPYDYWGQGTLVTVSSGGGGSGGGSEVQLVESGGGVVQPGGSLRLSCAASGFTFRSFGMSWVRQAPGKGPEWVSSISGSGSDTLYADSVKGRFTISRDNSKNTLYLQMNSLRPEDTALYYCTIGGSLSRSSQGTLVTVSSA
notes: Bivalent ISVD construct: anti-TCR and anti-albumin; also called TCE01-9GS-ALB23002-A
B6: ALB223 (VHH)
VHH: EVQLVESGGGVVQPGGSLRLSCAASGFTFRSFGMSWVRQAPGKGPEWVSSISGSGSDTLYADSVKGRFTISRDNSKNTLYLQMNSLRPEDTALYYCTIGGSLSRSSQGTLVTVSS
notes: also called ALB23002-A

How the values were obtained:
[1] = biological target: T3, human GPC3 on tumor cell lines (HepG2, Huh-7, NCI-H661, MKN-45, NCI-H23, BxPC-3, NCI-H292) (human, UniProt P51654 25-554); assay: pHAb internalization assay on Huh-7 cells, flow cytometry (BD FACSArray, yellow laser); indirect readout that needs binding and uptake; concentration not given
T3 construct: Endogenous GPC3 of human cancer cell lines; also called GPC3 on HepG2; GPC3 on Huh-7
Method: The assay was read on a BD FACSArray with a yellow laser (pHAb: excitation maximum at 532 nm, emission maximum at 560 nm). The internalization rate was determined by quantifying the internalization at 37° C. at different timepoints (0.5 h, 3 h, 24 h and 48 h) compared to 4° C. at 0.5 h (Table 10, FIG. 8A).

[2] = biological target: T3, human GPC3 on tumor cell lines (HepG2, …); assay: flow cytometry on HepG2 cells
[3] = biological target: T4, cyno Glypican-3 delta-GPI-HIS, in-house produced (cynomolgus); assay: SPR ProteOn XPR36, periplasmic extract over coated cyno GPC3
T4 construct: range 3-559; also called cyno GPC3; cyGPC3
Method: (§1) Off-rates of ISVDs were determined on a ProteOn XPR36 instrument (Bio-Rad Laboratories, Inc.). ProteOn GLC Sensor Chips were coated with cyno Glypican-3 AGPI-HIS (in-house produced; accession number P51654; Q3-R358; S359-H559) and human GPC3 (R&D Systems, cat nr. 2119-GP). Periplasmic extracts were diluted 1:10 in ProteOn PBS Tween buffer (PBS, pH 7.4, 0.005% Tween 20 (167-2720, BioRad)). Experiments were carried out at 25° C. Data obtained was double referenced by reference lane subtraction as well as subtraction of a blank buffer injection. Processed curves were used for off-rate analysis based on the Langmuir dissociation (off-rate analysis) model.

[4] = biological target: T5, cyno GPC3 expressed on CHO Flp-In cells (cynomolgus); assay: flow cytometry, periplasmic extract on CHO Flp-In cyno GPC3 against parental CHO
T5 construct: range 3-559; On cells; also called cyGPC3 CHO; CHO-cGPC3
Method: (§2) Periplasmic extracts were screened for human and cyno GPC3 binding in flow cytometry using CHO Flp-In cells (Invitrogen cat nr. K6010) expressing either human GPC3 (accession number P51654; Q25-R358, S359-H580) or cyno GPC3 (accession number P51654; Q3-R358; S359-H559), respectively. In brief, 1×10⁵ cells were incubated in 1:5 diluted periplasmic extracts for 30 min at 4° C., and then washed 3 times. As a control, the parental CHO Flp-In cell line (Invitrogen cat nr. K6010) was included. […] Samples were washed and resuspended in FACS Buffer (D-PBS (Gibco) with 10% FBS (Sigma) and 0.05% sodium azide (Merck)) supplemented with 5 nM TOPRO3 (Molecular Probes, cat nr T3605). Cell suspensions were then analyzed on a FACS Array. Gating was set on live, intact cells using forward/side scatter and TOPRO3 channel fluorescence parameters.

[5] = biological target: T5, cyno GPC3 expressed on CHO Flp-In cells; assay: flow cytometry on CHO Flp-In cyno GPC3 cells
[6] = biological target: T3, human GPC3 on tumor cell lines (HepG2, …); assay: flow cytometry on Huh-7 cells
[7] = biological target: T6, recombinant human Glypican-3 (R&D Systems, cat nr. 2119-GP) (human, UniProt P51654 25-559); assay: SPR ProteOn XPR36, periplasmic extract over coated human GPC3
T6 construct: Bought protein; also called human GPC3; hGPC3
Method: as §1

[8] = biological target: T7, human GPC3 expressed on CHO Flp-In cells (human, UniProt P51654 25-554); assay: flow cytometry, periplasmic extract on CHO Flp-In human GPC3 against parental CHO
T7 construct: On cells; Q25-R358, S359-H580; also called hGPC3 CHO; CHO huGPC3
Method: as §2

[9] = biological target: T5, cyno GPC3 expressed on CHO Flp-In cells; assay: flow cytometry on CHO Flp-In cyno GPC3 cells; remark: listed apart in the source
[10] = biological target: T3, human GPC3 on tumor cell lines (HepG2, …); assay: flow cytometry on HepG2 and Huh-7 cells
Method: as §2
Variants were evaluated for binding to HepG2, Huh-7 and CHO Flip-In cyno-GPC3 cells by flow cytometry, as described in Example 1.

[11] = biological target: T5, cyno GPC3 expressed on CHO Flp-In cells; assay: flow cytometry on CHO Flp-In cyno GPC3 cells; remark: listed apart in the source
[12] = biological target: T3, human GPC3 on tumor cell lines (HepG2, …); assay: flow cytometry on HepG2 cells; remark: listed apart in the source
[13] = biological target: T3, human GPC3 on tumor cell lines (HepG2, …); assay: flow cytometry on Huh-7 cells; remark: listed apart in the source
[14] = biological target: T1, TCRab on primary human T cells; assay: competition flow cytometry on primary human T cells, competitor T017000624 at EC30 (2E-08 M)
Method: (§3) T cells (human T cells obtained as described in Example 3 and cyno T cells purchased from LPT laboratory, Germany) were thawed and counted on the day of the assay and diluted to a concentration of 1E+06 cells/mL, before adding 75 μL to the wells of a V-bottom 96-well plate (Greiner, cat no 651180). Cells were washed once with cold FACS buffer, before adding 25 μL Nb and 25 μL competitor to the wells. […] Cells were resuspended and plates were incubated at 4° C. for 90 minutes, after which plates were washed twice in cold FACS buffer. Cells were resuspended in 50 μl 1/1000 diluted Monoclonal ANTI-FLAG® M2 (Sigma Aldrich, cat no F1804) in FACS buffer and incubated at 4° C. for 30 minutes. Plates were washed twice in cold FACS buffer. […] Plates were washed twice in cold FACS buffer. Cells were resuspended in 55 μL 1/1000 diluted Propidium Iodide (Sigma-Aldrich, cat no P4170) in FACS buffer before acquiring data on the MACSQuant X (Miltenyi biotec).

[15] = biological target: T2, cyno TCRab, in house produced …; assay: SPR ProteOn XPR36, TCRab immobilized by amine coupling, 1:1 model
Method: (§4) Recombinant TCR proteins were immobilized on a GLC Sensor Chip (Biorad) via amine coupling, using EDC and NHS chemistry (running buffer: HBS-EP+, pH 7.4). Purified ISVDs were injected for 2 minutes (flow rate 45 μL/min) at different concentrations (between 0.2 nM and 200 nM) and dissociation was followed for 900 s. Regeneration was performed by injecting 3 M MgCl₂ for 3 minutes (flow rate 90 μL/min). Data was double referenced by subtracting a reference ligand lane and a blank buffer injection. Processed sensorgrams were analyzed based on the 1:1 interaction model (Langmuir binding model) using ProteOn Manager 3.1.0 (Version 3.1.0.6) software.

[16] = biological target: T8, TCRab on primary cyno T cells (cynomolgus); assay: competition flow cytometry on cyno T cells, competitor T017000623 at EC30 (5E-08 M)
T8 construct: whole, on cells; also called Primary cy T cells; cyno TCR
Method: as §3

[17] = biological target: mouse serum albumin (DivBioScience cat no IMSA) (mouse, UniProt P07724 25-608); assay: SPR ProteOn XPR36, serum albumin immobilized by amine coupling, 1:1 model
Method: as §4, with “Serum albumin proteins” for “Recombinant TCR proteins”, “(between 0.24” for “(between 0.2”, “and 500” for “and 200”, “injecting 10 mM Glycine-HCl (pH 1.5)” for “injecting 3 M MgCl₂”, “for 47 seconds” for “for 3 minutes”, “rate 100” for “rate 90”

[18] = biological target: T9, human serum albumin (Sigma cat no A8763) (human, UniProt P02768 25-609); assay: as above
T9 construct: also called HSA
Method: as §4, with “Serum albumin proteins” for “Recombinant TCR proteins”, “(between 0.24” for “(between 0.2”, “and 500” for “and 200”, “injecting 10 mM Glycine-HCl (pH 1.5)” for “injecting 3 M MgCl₂”, “for 47 seconds” for “for 3 minutes”, “rate 100” for “rate 90”

[19] = biological target: T10, cyno serum albumin (in house produced from animal tissue) (cynomolgus); assay: as above
T10 construct: also called cynomolgus serum albumin
Method: as §4, with “Serum albumin proteins” for “Recombinant TCR proteins”, “(between 0.24” for “(between 0.2”, “and 500” for “and 200”, “injecting 10 mM Glycine-HCl (pH 1.5)” for “injecting 3 M MgCl₂”, “for 47 seconds” for “for 3 minutes”, “rate 100” for “rate 90”

T10 sequence (A2V9Z4 25-608): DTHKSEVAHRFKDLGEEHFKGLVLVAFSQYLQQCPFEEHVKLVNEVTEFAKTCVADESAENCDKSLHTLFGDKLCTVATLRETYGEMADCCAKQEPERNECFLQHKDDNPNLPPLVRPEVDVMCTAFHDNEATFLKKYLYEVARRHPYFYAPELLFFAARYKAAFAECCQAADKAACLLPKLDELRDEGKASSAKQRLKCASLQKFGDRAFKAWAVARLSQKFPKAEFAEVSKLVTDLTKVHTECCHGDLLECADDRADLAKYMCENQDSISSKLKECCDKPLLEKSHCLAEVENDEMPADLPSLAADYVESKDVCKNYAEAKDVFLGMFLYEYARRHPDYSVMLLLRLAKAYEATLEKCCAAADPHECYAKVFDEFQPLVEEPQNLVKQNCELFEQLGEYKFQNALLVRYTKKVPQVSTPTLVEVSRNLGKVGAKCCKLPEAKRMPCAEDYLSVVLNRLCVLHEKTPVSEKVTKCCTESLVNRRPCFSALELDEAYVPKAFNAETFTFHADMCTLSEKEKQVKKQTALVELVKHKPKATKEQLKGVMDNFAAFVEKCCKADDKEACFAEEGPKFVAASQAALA
Chain of mouse serum albumin (DivBioScience cat no IMSA) (P07724 25-608 limits assumed): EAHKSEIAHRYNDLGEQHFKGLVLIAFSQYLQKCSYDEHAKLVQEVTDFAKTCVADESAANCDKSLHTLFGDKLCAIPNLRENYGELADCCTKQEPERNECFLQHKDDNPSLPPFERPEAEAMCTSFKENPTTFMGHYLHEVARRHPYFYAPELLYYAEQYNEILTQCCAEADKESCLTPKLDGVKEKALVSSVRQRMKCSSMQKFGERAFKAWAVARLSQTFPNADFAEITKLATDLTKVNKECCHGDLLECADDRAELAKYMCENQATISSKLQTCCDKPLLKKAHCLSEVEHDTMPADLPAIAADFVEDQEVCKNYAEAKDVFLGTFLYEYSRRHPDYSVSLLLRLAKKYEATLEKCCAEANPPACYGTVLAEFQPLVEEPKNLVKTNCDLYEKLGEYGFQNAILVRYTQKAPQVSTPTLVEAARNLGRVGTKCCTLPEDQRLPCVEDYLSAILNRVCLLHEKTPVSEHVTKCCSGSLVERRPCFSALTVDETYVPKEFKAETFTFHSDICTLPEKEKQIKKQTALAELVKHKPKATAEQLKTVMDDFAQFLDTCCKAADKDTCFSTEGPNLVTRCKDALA

Row | Binder | EC50 [2] [nM] | koff [3] [s⁻¹] | Ratio MFI cyGPC3 CHO/CHO [4] | EC50 [5] [nM] | EC50 [6] [nM] | koff [7] [s⁻¹] | Ratio MFI hGPC3 CHO/CHO [8] | further results
1 | B1 | – | – | – | – | – | – | – | binding result [1]: no binding
2 | B2 | 7.5 | 0.0004 | 13.7 | 7.8 | 6.6 | 0.00033 | 58.2 | –
3 | B3 | 16 | – | – | 12 | 9.3 | – | – | fold decrease in binding potency against parental A0226015A08 [9]: < 2 fold; fold decrease in binding potency against parental A0226015A08 [10]: < 2 fold
4 | B4 | – | 0.0011 | 19.9 | – | – | 0.00097 | 159 | EC50 [11]: 0.49 nM; EC50 [12]: 0.915 nM; EC50 [13]: 0.696 nM
5 | B5 | – | – | – | – | – | – | – | IC50 [14]: 190 nM; Kd [15]: 11 nM; IC50 [16]: 250 nM
6 | B6 | – | – | – | – | – | – | – | Kd [17]: 5.3 nM; Kd [18]: 0.88 nM; Kd [19]: 0.57 nM

Source: US20240343823A1 (Ablynx, published 2024)
